The record followed here is patent US5318897.

What is called Kd is the equilibrium constant for the complex coming apart. High values mean weaker binding, low ones tighter binding. As a reminder, the Km is the concentration of substrate that gives half-maximal velocity. The kcat is the number of substrate molecules converted per active site and unit of time at saturation.

One assay concerns the target T1, Z-R-R-MCA.
T1 sequence (peptide, N-terminal Z; C-terminal methylcoumarinamide (MCA)): RR

The target in a further assay is T2, Boc-L-R-R-MCA.
T2 sequence (peptide, N-terminal Boc; C-terminal methylcoumarinamide (MCA)): LRR

Assay [1] deals with T3, vasoactive intestinal peptide (VIP).
T3 sequence (peptide, C-terminal amide (--CO--NH2)): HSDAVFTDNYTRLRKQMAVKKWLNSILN
Kind of assay: binding studies under conditions that did not permit VIP hydrolysis (high ionic strength).

Assay [2] shares this target.

Take “bovine pancreatic trypsin (from UniProt P00760) (enzyme)”: the fluorescence of the leaving group methylcoumarinamide with Z-R-R-MCA is 179 units; in the assay with Boc-L-R-R-MCA it was 263 units; with P-F-R-MCA, 194 units.

B1: monoclonal antibody c23.5 (IgG2a, kappa) (antibody, V domains shown)
VH: EVQLQESGGGLVKPGGSLKLSCAASGFTFSIYGMSWFRQTPEKRLEWVATISGGDTYTYYPDSVKGRFTISRDNAKNNLFLQMSSLRSEDTALYFCGRGIAYWGQGTLVTVSA
VL: DIVLTQSPASQSASLGESVTITCLASQTIGTWLPWYQQKLGKSPQLLIYAATSLADGVPSRFSGSGSATKFSFKISSLQAEDFVSYNCQHLYSTPLTFGGGTKL
On to B1, for which, in assay [1], the Kd was 3.4 nM. In addition, the Michaelis constant (Km) in assay [2] was 2 nM. Further, in assay [2], the kcat was found to be 1.33e-06 s⁻¹. Moreover, the fluorescence of the leaving group methylcoumarinamide with Z-R-R-MCA and with Boc-L-R-R-MCA was less than 1 unit throughout.
